Key:
[1] = determined previously (Auton:2009); cited from earlier work
[2] = Irreversible thermal denaturation by CD, intrinsic fluorescence and ANS fluorescence (Example 2); format: physicochemical; details: 2° Celsius/min
Experimental: The unfolding of disulfide-intact A1 and RCAM A1 was also monitored via CD at 222 nm, intrinsic protein fluorescence at 280 nm/359 nm and ANS fluorescence at 350 nm/495 nm as a function of temperature.
CD thermalscans were recorded between 10 and 95° Celsius at 222 nm with a protein concentration of 1 μM in a 1 cm quartz cell under moderate stirring. Prior to each measurement protein samples were equilibrated at 10° Celsius for 10-15 min in order to obtain a stable baseline. The scanrate for all Thermalscans was 2° Celsius/min. The integration time for each data point was 20 s, the bandwidth 1 nm. All measured CD data were converted into mean molar ellipticities per amino acid residue.
Thermalscans monitoring protein fluorescence were recorded at an emission wavelength of 359 nm after excitation at 280 nm using a protein concentration of 2 μM in a 1 cm quartz cell under moderate stirring. ANS-Thermalscans were recorded at 495 nm after Excitation at 350 nm using 1 μM protein and 100 μM ANS. Prior to any performed thermalscan samples were equilibrated for 10-15 min. The scanrate was 2° Celsius/min. At each temperature between 10 or 20° Celsius and 95° Celsius relative fluorescence intensity was collected for 4 s and averaged.

[3] = Urea-induced unfolding monitored by CD at 222 nm (Example 1); format: physicochemical; details: 25° Celsius, native to intermediate transition
Experimental: A1-1261 and A1-1238 were chemically unfolded with urea in order to compare the obtained thermodynamic parameters. The unfolding was monitored at 25° Celsius by CD at λ=222 nm, FIG. 3B. For both proteins, unfolding through an intermediate state was observed, as has been previously reported (Auton:2009). The thermodynamic parameters are illustrated in the insets of FIG. 3B and listed in the Supplement Table 2. Relative to A1-1261, A1-1238 has a marginal loss in unfolding cooperativity (+0.55±0.38 kJ/mol/M) of the transition and the midpoint, cm, of A1-1238 is increased by +0.27±0.04 M. These two contributions to the ΔG^0 cancel each other so that the N-terminal peptide is neither stabilizing nor destabilizing the conformational transition.
Isothermal urea induced unfolding of A1-1261 and A1-1238 at 25° Celsius was monitored via CD at λ=222 nm using a quartz cuvette with a path length of 1 mm and a protein concentration of 10 μM after an overnight equilibration. CD-signal was averaged for 10 min, corrected for the corresponding CD-signal of the buffer and converted into mean molar ellipticities per amino acid residue (θMRW).
Isothermal urea unfolding was analyzed using a three state reversible model (N<->I<->D) as previously described (Auton:2009, Auton:2007). All thermal unfolding transitions were analyzed according to the irreversible models provided in the Supporting Information. […]

[4] = Acrylamide quenching of tryptophan fluorescence (Stern-Volmer); format: physicochemical
Experimental: This was also confirmed via acrylamide induced tryotophan fluorescence quenching performed with an excitation wavelength of 295 nm.
Initially a quenching determination was performed with disulfide-intact A1 at 20° Celsius and at 1° Celsius in order to distinguish between static and collisional quenching. […] Clear evidence for collisional quenching could be obtained for the A1-domain since the Stern-Volmer constant decreased from 2.6±0.03 to 2.2±0.03 M−1, FIG. 16A, ruling out a static quenching mechanism.
Acrylamide quenching of tryptophan was performed using an excitation wavelength of 295 nm. After the addition of a certain amount of buffered acrylamide solution the protein solution was equilibrated for ˜5 min and then a fluorescence spectrum between 320 and 400 nm was recorded. Stern-Volmer constants were determined from the fluorescence intensity at 359 nm using the Stern-Volmer equation as described by Lakowicz (Lakowicz:2006)
where KD is the Stern-Volmer quenching constant and KD-1 is the concentration of acrylamide at which F0/F=2 and 50% of the fluorescence intensity is quenched.

A1-1238: Recombinant human vWF A1 domain, amino acids Q1238-P1471, with N-terminal 6×His-Tag, disulfide intact
Tm from reversible N<->I urea-temperature phase diagram [1]: 51.1±0.5 ° Celsius
T* ([2]; ANS Fluorescence): 64.4 °C
ΔH* ([2]; ANS Fluorescence): 63.8 kcal/mol
T* ([2]; Circular Dichroism): 65 °C
ΔH* ([2]; Circular Dichroism): 65 kcal/mol
T* ([2]; Intrinsic Fluorescence): 63 °C
ΔH* ([2]; Intrinsic Fluorescence): 60.7 kcal/mol
Change in midpoint cm relative to A1-1261 [3]: +0.27±0.04 M
Change in unfolding cooperativity (m-value) relative to A1-1261 [3]: +0.55±0.38 kJ/mol/M
Stern-Volmer constant ([4]; 2 M GdnHCl): 6.0 ± 0.1 M⁻¹
Stern-Volmer constant ([4]; buffer, 1° Celsius): 2.2 ± 0.03 M⁻¹
Stern-Volmer constant ([4]; buffer, 20° Celsius): 2.6 ± 0.03 M⁻¹
